Test results: paper PMC9372576

Assays:
[1] = molecular target: GvpA fused to NGFP or CGFP (Halobacterium salinarum) (UniProt P08958); assay: split reporter (BiFC, NanoBiT); split-GFP (NGFP and CGFP of salt-stable mGFP2) in Hfx. volcanii transformants, 24 h 37 °C then 24 h 30 °C; relative fluorescence (rf) against the wild type; the highest of eight tag combinations is given
[2] = molecular target: GvpA fused to NGFP or CGFP (Halobacterium salinarum) (UniProt P08958); assay: split reporter (BiFC, NanoBiT); split-GFP of A/A with untagged GvpC, GvpN and GvpO co-produced under the P2 promoter (A/A + CNO)

Chain of GvpA fused to NGFP or CGFP (Halobacterium salinarum) (P08958 whole entry, the tested form may be a part): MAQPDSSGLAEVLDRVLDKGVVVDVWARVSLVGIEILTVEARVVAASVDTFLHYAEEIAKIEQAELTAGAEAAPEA

Substance	relative fluorescence (rf) [1] [LAU/mm^2]	relative fluorescence (rf) [2] [LAU/mm^2]
GvpC fused to NGFP or CGFP (from UniProt P24574 1-382) (natural protein)	< 2	–
GvpA fused to NGFP or CGFP (from UniProt P08958 1-76) (natural protein)	< 2	5.12
